Test results taken from patent US20220204643A1 (published 2022).
Blank lines part the entries; values can stand above or below the binder they belong to.

Columns and labels:
[1] = target: T1, S100 calcium binding protein B (human, UniProt P04271 2-92)
T1 construct: HuProt array protein, full-length recombinant from yeast; also called S100B
T1 sequence: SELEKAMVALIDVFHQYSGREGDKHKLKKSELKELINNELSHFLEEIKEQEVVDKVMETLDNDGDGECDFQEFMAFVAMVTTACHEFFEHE

[2] = target: aldo-keto reductase family 1 member B, transcript variant 1 (human, UniProt P15121 2-316)
[3] = target: T2, checkpoint kinase 2, transcript variant 3 (human)
T2 construct: HuProt array protein, full-length recombinant from yeast; also called CHEK2
T2 chain: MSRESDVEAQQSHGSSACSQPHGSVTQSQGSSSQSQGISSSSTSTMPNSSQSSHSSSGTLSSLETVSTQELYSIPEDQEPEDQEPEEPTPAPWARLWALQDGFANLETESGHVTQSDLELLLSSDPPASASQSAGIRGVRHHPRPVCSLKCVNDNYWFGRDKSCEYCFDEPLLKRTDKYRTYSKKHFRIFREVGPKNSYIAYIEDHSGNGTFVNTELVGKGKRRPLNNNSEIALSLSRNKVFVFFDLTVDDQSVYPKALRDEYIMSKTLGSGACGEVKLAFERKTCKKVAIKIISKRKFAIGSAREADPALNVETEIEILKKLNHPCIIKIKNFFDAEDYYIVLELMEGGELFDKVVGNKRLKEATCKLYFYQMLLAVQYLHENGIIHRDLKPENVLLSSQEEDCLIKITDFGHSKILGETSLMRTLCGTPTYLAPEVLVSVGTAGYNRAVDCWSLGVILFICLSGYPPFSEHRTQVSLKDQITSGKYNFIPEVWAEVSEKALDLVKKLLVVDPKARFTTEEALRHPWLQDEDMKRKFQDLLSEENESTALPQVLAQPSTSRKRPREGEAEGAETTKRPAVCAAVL

[4] = target: T3, proliferating cell nuclear antigen, transcript variant 1 (human, UniProt P12004 1-261)
T3 construct: HuProt array protein, full-length recombinant from yeast; also called PCNA

[5] = target: T4, CDP-diacylglycerol synthase 1 (human, UniProt Q92903 1-461)
T4 construct: HuProt array protein, full-length recombinant from yeast; also called CDS1
T4 sequence: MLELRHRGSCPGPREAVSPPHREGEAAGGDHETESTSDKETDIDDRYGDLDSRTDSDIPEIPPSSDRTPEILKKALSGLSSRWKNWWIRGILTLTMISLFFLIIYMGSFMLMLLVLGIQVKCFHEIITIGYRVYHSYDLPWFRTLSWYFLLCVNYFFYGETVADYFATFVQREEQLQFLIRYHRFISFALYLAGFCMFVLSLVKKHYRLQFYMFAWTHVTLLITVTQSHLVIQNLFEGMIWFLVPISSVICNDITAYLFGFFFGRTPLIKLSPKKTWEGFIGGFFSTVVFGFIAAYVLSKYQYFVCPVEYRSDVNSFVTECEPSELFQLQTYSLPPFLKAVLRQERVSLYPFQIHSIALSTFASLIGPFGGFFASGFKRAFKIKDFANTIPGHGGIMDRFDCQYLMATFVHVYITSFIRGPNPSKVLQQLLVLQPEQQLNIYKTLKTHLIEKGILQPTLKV

[6] = target: T5, dynein axonemal assembly factor 3, transcript variant 3 (human, UniProt Q8N9W5 1-541)
T5 construct: HuProt array protein, full-length recombinant from yeast; also called DNAAF3
T5 sequence: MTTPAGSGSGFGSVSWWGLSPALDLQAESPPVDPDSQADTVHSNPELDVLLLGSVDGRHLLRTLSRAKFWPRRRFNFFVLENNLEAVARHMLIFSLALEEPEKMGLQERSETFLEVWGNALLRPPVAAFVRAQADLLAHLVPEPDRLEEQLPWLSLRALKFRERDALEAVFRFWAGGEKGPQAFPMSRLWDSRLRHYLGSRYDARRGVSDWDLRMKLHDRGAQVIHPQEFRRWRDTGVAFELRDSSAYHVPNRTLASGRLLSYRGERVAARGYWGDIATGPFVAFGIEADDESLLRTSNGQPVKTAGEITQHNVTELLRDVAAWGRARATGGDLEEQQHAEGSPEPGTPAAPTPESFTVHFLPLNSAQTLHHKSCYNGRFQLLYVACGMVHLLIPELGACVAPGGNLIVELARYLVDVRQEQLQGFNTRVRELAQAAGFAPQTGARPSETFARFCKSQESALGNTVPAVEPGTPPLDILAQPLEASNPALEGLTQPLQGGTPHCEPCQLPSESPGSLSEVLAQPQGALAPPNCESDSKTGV

[7] = target: T6, aarF domain containing kinase 5 (human, UniProt Q3MIX3 1-580)
T6 construct: HuProt array protein, full-length recombinant from yeast; also called ADCK5

[8] = target: T7, ankyrin repeat domain 53, transcript variant 2 (human)
T7 construct: HuProt array protein, full-length recombinant from yeast; also called ANKRD53
T7 chain: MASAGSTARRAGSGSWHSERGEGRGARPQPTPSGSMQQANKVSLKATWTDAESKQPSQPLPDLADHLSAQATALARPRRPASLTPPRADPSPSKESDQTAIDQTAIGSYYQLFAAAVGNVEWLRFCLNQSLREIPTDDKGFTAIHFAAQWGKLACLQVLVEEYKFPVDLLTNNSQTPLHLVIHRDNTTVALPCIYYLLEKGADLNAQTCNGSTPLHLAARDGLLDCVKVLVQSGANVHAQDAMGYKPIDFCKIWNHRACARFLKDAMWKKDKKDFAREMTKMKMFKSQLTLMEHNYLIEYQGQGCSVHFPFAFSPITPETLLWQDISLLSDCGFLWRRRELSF

T6 sequence (Q3MIX3 other isoform, or with tags, fused parts or gaps limits assumed): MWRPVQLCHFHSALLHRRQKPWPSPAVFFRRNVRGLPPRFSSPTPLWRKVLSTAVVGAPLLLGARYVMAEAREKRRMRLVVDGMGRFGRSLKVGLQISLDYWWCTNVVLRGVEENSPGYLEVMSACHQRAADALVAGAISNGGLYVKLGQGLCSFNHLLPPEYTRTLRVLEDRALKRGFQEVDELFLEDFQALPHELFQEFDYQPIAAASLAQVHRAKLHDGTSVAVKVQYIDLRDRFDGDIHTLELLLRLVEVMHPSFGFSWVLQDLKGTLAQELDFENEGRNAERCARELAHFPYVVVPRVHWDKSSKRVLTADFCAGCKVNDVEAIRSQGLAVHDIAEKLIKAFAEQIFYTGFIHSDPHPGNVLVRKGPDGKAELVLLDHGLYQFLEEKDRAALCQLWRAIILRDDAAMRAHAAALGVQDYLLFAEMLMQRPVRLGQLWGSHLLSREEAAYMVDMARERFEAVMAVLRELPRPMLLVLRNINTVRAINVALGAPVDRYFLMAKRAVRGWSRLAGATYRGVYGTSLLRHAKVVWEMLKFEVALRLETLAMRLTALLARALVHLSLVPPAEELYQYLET
T3 sequence (P12004 whole entry, change not shown): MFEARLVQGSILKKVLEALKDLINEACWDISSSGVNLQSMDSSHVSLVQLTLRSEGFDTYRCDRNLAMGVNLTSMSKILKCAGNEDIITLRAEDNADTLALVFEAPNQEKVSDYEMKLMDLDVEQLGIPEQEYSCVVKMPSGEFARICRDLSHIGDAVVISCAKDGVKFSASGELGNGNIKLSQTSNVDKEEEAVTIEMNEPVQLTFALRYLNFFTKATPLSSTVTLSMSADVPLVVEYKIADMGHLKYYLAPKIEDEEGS

binding result [1]: binds
B1: TKIC1012 (antibody, V domains shown)
VH: VVQLVESGGGLVQPGGSLRLSCAASGFSFSTYWMSWVRQAPGKGLEWVANIKQDGSEKHYVDSVKGRFTISRDNAKNSLYLQMNSLRAEDTAMYYCARRAYSFDYWGQGTLVTVSS
VL: DIQMTQSPSTLSASVGDKVTITCRASQSVGSWLAWYQQKPGKAPKLLISVASSLESGVPSRFSGSGSGTEFTLTVSSLQPDDFATYYCQQYNSYSWTFGQGTKVELKR
notes: detected with anti-human IgG Fc

binding result [2]: binds
B2: TKIC1006 (antibody, V domains shown)
VH: QVQLVQSGAEVKKPGSSVKVSCKTSGGTFSSYTISWVRQAPGQGPEWMGRIIPILNITNYAQKFQGRVTITADKSTSTTYMEMGSLRSEDTAVYFCARSFYGSGLQWGQGTLVTVSS
VL: EIVLTQSPGTLSLSPGERATLSCRASQSVSSSYLVWYQQKAGQAPRLLIYGASSRATGISDRFSGSGSGTDFTLTISRLEPEDFAVYYCQHFRSSPPTYTFGQGTKLEIKR
notes: as for B1

binding result [3]: binds
B3: TKIC1013 (antibody, V domains shown)
VH: EVQLVESGGGLVQPGGSLRLSCAASGFTFNNYWMHWVRQAPGKGLVWVSRISSDGSTTASADSVKGRFTISRDNAKNTLFLQMNSLRAEDTAVYYCAREGAPDDYGDSGTAFDIWGQGTTVTVSS
VL: DIQLTQSPSFLSASVGDRVTITCRASQDISSFLAWYQQKPGKAPDLLIYAASTLQSGVPSRFSGSGSGTEFTLTISSLQPEDFAAYYCQHLTSFPYTFGQGTKLEIKR
notes: as for B1

binding result [4]: binds
B4: TKIC1007 (antibody, V domains shown)
VH: GVDLVESGGGLVKPGGSLRLSCAASGFSFSRYNINWVRQAPGKGLEWVSSISSTSNYIYYADSVKGRFTISRDNAKNSLYLQMNSLRAEDTAVYYCARAMGGYTYYLDDWGQGTLVTVSS
VL: QSALTQPASVSGSPGQSITISCTGTSSDVGLYNFVSWYQQHPGKAPKLMIFDVNNRPSGVSNRFSGSKSDNTASLTISGLQAEDEADYYCSSYSRTTTLVFGGGTKVTVLG
notes: as for B1

binding result [5]: binds
binding result [6]: binds
B5: THNS1014 (antibody, V domains shown)
VH: HVQLLQSGPGLVKPSQTLSLTCAISGDSVSSTSGAWNWIRQSPSRGLEWLGRTYYRSQWMNDYAESVRSRITINPDTSKNQFSLQLKSVTPEDTAVYYCTRGWAFTSSDWGQGTQVTVSS
VL: EIVLTQSPGTLSLSPGERATLSCRASQSFDGKSLAWYQQKPGQTPRLLVYGASSRATGIPDRFGGSGSGTDFTLTISRLESEDFAVYFCQQYAYVPITFGQGTRLERKR
notes: as for B1

binding result [7]: binds
B6: TKIC1002 (antibody, V domains shown)
VH: PVQLQESGPGLVKPSETLSLTCTVSGGSISSYYWSWIRQPPGKGLEWIGYLFYSGSTNYNPSLKSRVTISVDTSKNQFSLKLGSVTAADTAVYYCARHRIFGLDVWGQGTTVTVSS
VL: EIVLTQSPGTLSLSLGERATLSCRASQSVSGSHLAWYQQKPGQAPRLLIYDASSRATGIPDRFSGSGSGTEFTLTISRLEPEDFAVYYCQQYGSSPLWFGQGTKVEIK
notes: as for B1

binding result [8]: binds
B7: TKIC1019 (antibody, V domains shown)
VH: QLQLQESGPGLVKPSETLSLTCTVSDVSIISSFYYWGWIRQPPGKGLEWIGSVYYSGSTSYNPSLKSRVTISADTSKAHFSLNLRSVTAADTAVYYCVSRGPLGGAAAGPDYWGQGALVIVSS
VL: VSSELTQDPAVSVALGQTVRITCQGDSLRSYYATWYQQKPGQAPLLVIFDKDKRPSGIPDRFSGSSSGNTASLTITGAQPEDEAVYYCNSRDSSAHDHLLFGGGTTLTVLG
notes: as for B1
